From article PMC2823488

B1: RNA:DNA hybrid of -454s (DNA:RNA)
RNA: UCUGCCGGCUUGGAUAUGGGGUGUC
DNA: GACACCCCATATCCAAGCCGGCAGA

How the values were obtained:
Test in all cases: EMSA
[1] = molecular target: TLS (UniProt P35637 1-526)
[2] = molecular target: GST-TLS 373-526 (UniProt P35637 373-526)
[3] = molecular target: GST-TLS 211-526 (UniProt P35637 211-526)
Sequence of GST-TLS 211-526 (P35637 211-526): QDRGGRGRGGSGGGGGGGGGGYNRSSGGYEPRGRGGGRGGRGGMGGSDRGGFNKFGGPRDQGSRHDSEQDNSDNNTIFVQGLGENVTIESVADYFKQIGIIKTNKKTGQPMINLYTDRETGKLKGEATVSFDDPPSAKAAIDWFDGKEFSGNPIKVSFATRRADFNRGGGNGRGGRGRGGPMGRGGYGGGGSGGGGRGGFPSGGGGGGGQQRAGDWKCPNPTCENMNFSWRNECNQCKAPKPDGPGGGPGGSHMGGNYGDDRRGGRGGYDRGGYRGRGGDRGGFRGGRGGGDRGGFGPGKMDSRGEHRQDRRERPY

Sequence of TLS (P35637 whole entry): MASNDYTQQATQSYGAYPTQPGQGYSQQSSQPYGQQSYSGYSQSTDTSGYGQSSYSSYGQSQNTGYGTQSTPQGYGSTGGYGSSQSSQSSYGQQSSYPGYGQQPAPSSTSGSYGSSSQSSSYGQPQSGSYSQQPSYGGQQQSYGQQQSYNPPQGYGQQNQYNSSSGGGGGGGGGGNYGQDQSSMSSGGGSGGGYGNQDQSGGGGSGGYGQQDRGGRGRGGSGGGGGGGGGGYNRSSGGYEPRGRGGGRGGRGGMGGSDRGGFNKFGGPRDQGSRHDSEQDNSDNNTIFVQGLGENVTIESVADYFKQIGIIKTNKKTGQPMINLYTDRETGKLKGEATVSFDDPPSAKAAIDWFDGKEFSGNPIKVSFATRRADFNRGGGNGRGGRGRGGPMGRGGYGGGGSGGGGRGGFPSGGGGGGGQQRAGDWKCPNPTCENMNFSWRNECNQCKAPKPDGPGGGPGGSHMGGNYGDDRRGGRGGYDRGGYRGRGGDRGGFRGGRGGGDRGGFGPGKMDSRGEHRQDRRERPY
Sequence of GST-TLS 373-526 (P35637 373-526): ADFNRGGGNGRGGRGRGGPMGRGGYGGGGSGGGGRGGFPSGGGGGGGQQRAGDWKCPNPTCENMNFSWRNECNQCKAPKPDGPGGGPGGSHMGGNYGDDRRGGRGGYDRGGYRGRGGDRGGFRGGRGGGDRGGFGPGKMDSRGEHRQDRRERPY

Binder | binding result [1] | binding result [2] | binding result [3]
UGGCAUCGUGAUGGACUCCGGUGAC (ssRNA) [β-actin RNA] | no binding | – | –
GACACCCCATATCCAAGCCGGCAGA (ssDNA) [DNA (complement of -454s)] | no binding | – | –
UCCAGCAGCAGCCCAAGAUGGUGGC (ssRNA) [-764a] | no binding | – | –
UUGUAUUUUGAGCUAGUUUGGUGAC (ssRNA) [GGUG-oligonucleotide] | binds | binds | binds
CCCGGGAUUUAGGGGGUGAGGUGGA (ssRNA) [-341a] | binds | – | –
UCUGCCGGCUUGGAUAUGGGGUGUC (ssRNA) [-454s (RNA in Fig. 4g)] | binds | – | –
B1 | no binding | – | –
